Reference: the supplement of paper PMC12042874
± gives the uncertainty stated by the source.

Test: amyloid nucleation score (Sup35N fusion, yeast selection) (log enrichment); library NNK2; higher = more nucleation; inactive = no reads after selection
Summary of the method: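 The nucleation score is the log enrichment of output over input reads, calculated with DiMSum and centred on the mode score of non-aggregating sequences. Sequences with under 100 input reads were excluded. Reads came from Illumina sequencing of plasmid inserts from psi-negative yeast expressing Sup35N fused to peptides of 20 random codons, induced 24 hours with 100 μM copper sulfate and grown 7 days at 30°C without adenine and uracil.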

Row | Substance | amyloid nucleation score
1 | IGISYCSRRVIFHGTRKTHS | -0.034 ± 0.28
2 | IGLHVWHLSLKGSSDLSGTV | 1.85 ± 0.12
3 | IGLYGNANPMTGVHSHLLCG | -0.088 ± 0.54
4 | IGMCLILRNPYIVLSDRWSS | 0.308 ± 0.39
5 | IGMSHRSQACESFKVKCPTY | 1.66 ± 0.2
6 | IGTGLDADTSM | 1.44 ± 0.16
7 | IGTNSGAINSVSHGLLAGYG | 1.24 ± 0.47
8 | IGVLISVGNLSYSTYSSRFI | 5.87 ± 0.062
9 | IHCRCVADCSRS | -0.097 ± 0.76
10 | IHDELSRCRC | -0.611 ± 0.63
11 | IHRGFILADTLHHYCSGLLI | -0.199 ± 0.65
12 | IHSSVGYMKTVPKLDDS | 0.207 ± 0.34
13 | IHWNKIMRFTFKYGILLYPS | -0.525 ± 1.1
14 | IIDNYNYMF | -0.963 ± 1.1
15 | IIEPYVHGVWKFHRFYLKSA | -0.701 ± 0.55
16 | IIHSLARFIC | -0.594 ± 0.26
17 | IIHTWLWTHRSIR | -0.406 ± 0.5
18 | IIIIATEHK | 3.48 ± 0.16
19 | IIKLRFFWYYNLLNQYLGFR | inactive
20 | IIMLYEYHLITGTMNAMHRV | inactive
21 | IINSANM | 0.736 ± 0.74
22 | IIPCRSLFAFNMMVM | 0.288 ± 0.53
23 | IIRTTSNRPTPLRCSPNLSM | -0.779 ± 0.33
24 | IISYEVWSPQQGDLNSHHCL | inactive
25 | IITMLGQEWAFGKLFDPLTL | 0.524 ± 0.34
26 | IIVFV | 0.086 ± 0.74

Row | Substance | amyloid nucleation score
27 | IIYYWAPLVITMEFQERRVR | 6.395 ± 0.038
28 | IKCKKKYRSYWNRG | -0.27 ± 0.46
29 | IKDMTKVIATGFCLCITLVC | 0.592 ± 0.66
30 | IKERGLCRWMYARFKGKSAI | inactive
31 | IKHDLSTFNNFSPVSWNMVY | -0.307 ± 0.79
32 | IKNSRNVLLMPLLANHWHNS | -0.58 ± 0.63
33 | IKVNCIEYYHSLRSRFDTSA | 0.065 ± 1.1
34 | IKVYSTVYQVSCLLRLMLLM | -1.24 ± 0.64
35 | ILANCGCCSNFSFYQMGEKY | 8.279 ± 0.047
36 | ILFLVNLFSLSIANVFR | inactive
37 | ILGVRYVSCSGSLGNWAQRG | 4.87 ± 0.098
38 | ILIIRLKFLVIVAITSTGSD | inactive
39 | ILIKIKRWSFRFPFGFGKLD | inactive
40 | ILILVLIECLILWFCYTMCI | 3.16 ± 0.049
41 | ILLINCMFNQYSGC | 7.894 ± 0.075
42 | ILLISVCYRNIVYISSSLMG | -0.172 ± 0.21
43 | ILLRMTITCMFTPYHAERRG | 4.61 ± 0.07
44 | ILLVYTLHRCLSSRVNEYQM | 4.22 ± 0.052
45 | ILNCVMYLICKYVFII | 2.16 ± 0.14
46 | ILRECFIFSHRKTHLLKFWL | -0.622 ± 1.1
47 | ILRFEAIYFEIMPHVYKVVK | -0.409 ± 0.38
48 | ILRVSGDAERSILFCPCLAI | -0.255 ± 0.25
49 | ILRYSFCRMLFAPRVTLIRF | 1.74 ± 0.25
50 | ILSCRYHNYSQQLVK | inactive
51 | ILSLIYGA | -0.084 ± 0.54
52 | ILTWVAHILLP | 3.72 ± 0.072

Row | Substance | amyloid nucleation score
53 | ILVMKFNSWLADEDRVRSVI | 1.21 ± 0.27
54 | ILWNYIYDKSFGITPDGFV | -0.398 ± 1
55 | ILYGGSPSLYVYAYTKN | 4.35 ± 0.11
56 | ILYVACSNMRCPILFMAGA | 2.12 ± 0.12
57 | IMEYAPLYFIMF | 4.16 ± 0.069
58 | IMVRVIAFNVL | 6.864 ± 0.041
59 | INCRFMVCWA | 9 ± 0.052
60 | INCSAFNHCIYSSPT | 2.82 ± 0.082
61 | INGWEPSIIDVIYNAHQIGP | 0.107 ± 0.79
62 | INLNNFLVLLLCKHRVVWKQ | 1.48 ± 0.2
63 | INLYRSVGPKKWYTGEVLMA | -0.137 ± 1.1
64 | INSPSYDNILMSTSSANMKR | inactive
65 | INSVFNGIGRVYRHW | -0.554 ± 1
66 | INVFGGHLMSYMKSISRVVC | -1.13 ± 0.64
67 | INWSHRGIISLDERMIIQYV | 0.154 ± 0.65
68 | IPCTTSCVVQFCVTYWLDN | 6.419 ± 0.029
69 | IPFLAVACLGDQWDD | 0.304 ± 0.18
70 | IPGSS | -0.137 ± 0.54
71 | IPMHPLCGVRRNTELRVVEW | 1.78 ± 0.25
72 | IPNYLSYTWILYNYTFLGAC | 0.719 ± 0.38
73 | IPSRAVVPFFLDLRPHADVS | 0.25 ± 0.46
74 | IQEVRVACCWLIFRGCIRTA | 4.1 ± 0.12
75 | IQINLLNSGYSFRLRASKFS | 2.89 ± 0.075
76 | IQSNAQESHNSNICESYNND | -1.02 ± 0.62
77 | IQTNVYWGISCCVSLSLSGL | 9.549 ± 0.022
78 | IQVLVLPISYISIRGQKWRN | 7.19 ± 0.08

Row | Substance | amyloid nucleation score
79 | IRCCVQFIQLSQGNNVWVRS | 6.07 ± 0.081
80 | IRDFYILAYRWLSQSHVMAN | inactive
81 | IRESGVYTNLYSVVRVEEKT | 0.012 ± 0.38
82 | IRFDFSC | 1.51 ± 0.17
83 | IRLLCHAVENCGTQRRLWGL | 0.329 ± 0.6
84 | IRLVHSNVEIWGSDLVFHRG | 6.196 ± 0.04
85 | IRMEFCDAMTICLLKQR | 3.72 ± 0.056
86 | IRNQWMQVSQVFSVSRAVET | 0.369 ± 0.3
87 | IRRGTYNFLMFQKDSFEYVS | 0.536 ± 0.62
88 | IRSFVSIRMFVCGRSDLRSN | -0.22 ± 1.1
89 | IRWCF | 5.34 ± 0.09
90 | ISCSKMRRFWHL | 0.587 ± 0.29
91 | ISERKCCKVLYISAIRVLNF | 0.034 ± 1.1
92 | ISFWGFYRFRYDMCRRVSDR | -1.34 ± 0.78
93 | ISGSRWRLGAIVGTVVEAFG | -0.049 ± 0.76
94 | ISINTICSNVDIGYGVAVFH | 3.92 ± 0.071
95 | ISIVPYYNLGIGGRVTGSEA | 0.012 ± 0.3
96 | ISLNLVVN | -0.272 ± 0.8
97 | ISLSHWGQTIPLRSFLLNRL | 0.432 ± 0.53
98 | ISSEHNAWYEVA | inactive
99 | ISTYSMYACFKMSL | 4.88 ± 0.1
100 | ISVGGLSHMGTVGSLMKVTQ | -0.023 ± 0.29
101 | ISVRPAQSASRPCLDLWLKA | 1.55 ± 0.36
102 | ISWTPSGAIVVS | inactive
103 | ISWVLRCQSKSRWLIQ | 0.627 ± 0.57
104 | ITACCRSR | 3.02 ± 0.062

Row | Substance | amyloid nucleation score
105 | ITDGLYLTWGFDP | 0.931 ± 0.74
106 | ITFFLRDMIAC | -0.907 ± 1
107 | ITGKTGVCSNNYTLKILGIV | -0.826 ± 0.33
108 | ITIFTSWPVIMLETVMCYCN | 5.32 ± 0.079
109 | ITMSQNSWNFRHDGTLVGLK | 0.377 ± 0.3
110 | ITPFHT | -0.448 ± 0.3
111 | ITQRHSVNLNMMSLDLYTSS | 0.295 ± 1
112 | ITRSGWDFYLS | 0.687 ± 0.49
113 | ITSFKWVLKGSWCKGRESKF | 4.87 ± 0.068
114 | IVARHPIGFQLVWGHWLTVA | 0.412 ± 0.26
115 | IVCLAVSLSSDRTE | 6.599 ± 0.04
116 | IVDHVYCIVILDLEHFFYNE | 5.02 ± 0.083
117 | IVFSDLTITF | 3.29 ± 0.11
118 | IVHILYECGAFRLPRGLY | -0.538 ± 0.38
119 | IVHLSHQG | -1.25 ± 0.62
120 | IVIPSSK | inactive
121 | IVLEMLKVTRVGPKQIGWPW | 0.696 ± 0.38
122 | IVLQSGR | -1.12 ± 0.63
123 | IVMFQNFVQMDVNYCCFLEV | 6.768 ± 0.04
124 | IVNINYCFTFKVPNHNNSMK | 7.923 ± 0.04
125 | IVNTELVLVDKLDSCIVRYN | 3.02 ± 0.17
126 | IVPSQH | 0.271 ± 0.44
